{"source": "patent EP1063290A1", "about": "“NOVEL DICARBONYLREDUCTASE AND GENE ENCODING THE SAME” (TAISHO PHARMACEUTICAL CO., LTD, priority 1998, dated 1999)", "proteins": {"B1": {"name": "protein DCR1 (Mus musculus) (protein)", "chain": "MDLGLAGRRALVTGAGKGIGRSTVLALKAAGAQVVAVSRTREDLDDLVRECPGVEPVCVDLADWEATEQALSNVGPVDLLVNNAAVALLQPFLEVTKEACDTSFNVNLRAVIQVSQIVAKGMIARGVPGAIVNVSSQASQRALTNHTVYCSTKGALDMLTKMMALELGPHKIRVNAVNPTVVMTPMGRTNWSDPHKAKAMLDRIPLGKFAEVENVVDTILFLLSNRSGMTTGSTLPVDGGFLAT"}, "B2": {"name": "protein hDCR1 (Homo sapiens) (protein)", "chain": "MELFLAGRRVLVTGAGKGIGRGTVQALHATGARVVAVSRTQADLDSLVRECPGIEPVCVDLGDWEATERALGSVGPVDLLVNNAAVALLQPFLEVTKEAFDRSFEVNLRAVIQVSQIVARGLIARGVPGAIVNVSSQCSQRAVTNHSVYCSTKGALDMLTKVMALELGPHKIRVNAVNPTVVMTSMGQATWSDPHKAKTMLNRIPLGKFAEVEHVVNAILFLLSDRSGMTTGSTLPVEGGFWAC"}}, "experiment_in_all_cases": "purified protein, by the assay type", "key": {"[1]": {"substrate": "CCC(=O)C(=O)CC"}, "[2]": {"substrate": "CC(=O)C(C)=O"}, "[3]": {"substrate": "O=Cc1ccncc1", "settings": "other: rate constants for the major substrates, mouse enzyme; pH 7.0; 25.0 °C", "protocol": "(§1) The enzyme activity assay method is not particularly restricted, and it may be based on the activity assay method for mouse carbonyl reductase (CR) (Eur. J. Biochem. 22, 381-387(1995)).\n(§2) • (1) This was assayed under the following conditions. The reaction mixture (total: 2.0 ml) comprised an 80 mM potassium phosphate solution (pH 7.0 or 6.0), 0.1 mM NADPH or NADH and a carbonyl substrate or enzyme (50 µl) (10.1 µg or 3.7 µg of glomerin B). The oxidation rate for NAD(P)H was measured at 340 nm. One unit of enzyme activity was defined as that which catalyzed oxidation of 1 µmol of NAD(P)H in one minute at 25°C. • (2) The substrate specificity of protein DCR1 for carbonyl compounds is summarized in Table 1. • (3) pH dependency of diacetyl reductase activity due to protein DCR1 The activity was measured using 10 mM diacetyl, and the specific activity was calculated based on the protein concentration in the protein DCR1 sample (Fig. 7)."}, "[4]": {"substrate": "CCCCC(=O)C(C)=O", "settings": "other: rate constants for the major substrates, mouse enzyme; pH 7.0; 25.0 °C", "protocol": "as §1, §2"}, "[5]": {"substrate": "O=Cc1cccnc1", "settings": "other: rate constants for the major substrates, mouse enzyme; pH 7.0; 25.0 °C", "protocol": "as §1, §2"}, "[6]": {"substrate": "COC(=O)C(=O)c1ccccc1", "settings": "other: rate constants for the major substrates, mouse enzyme; pH 7.0; 25.0 °C", "protocol": "as §1, §2"}, "[7]": {"substrate": "COC(=O)C(C)=O", "settings": "other: rate constants for the major substrates, mouse enzyme; pH 7.0; 25.0 °C", "protocol": "as §1, §2"}, "[8]": {"substrate": "CCCC(=O)C(C)=O"}, "[9]": {"substrate": "CC(=O)C(=O)c1ccccc1", "settings": "pH 7.0; 25.0 °C", "protocol": "as §1, §2"}, "[10]": {"substrate": "CC(=O)C(C)O", "settings": "other: rate constants for the major substrates, mouse enzyme; pH 7.0; 25.0 °C", "protocol": "as §1, §2"}, "[11]": {"substrate": "CCC(=O)C(C)=O"}, "[12]": {"substrate": "O=C(CBr)C(=O)CBr", "settings": "other: assay at pH 7.0, 25.0 °C", "protocol": "The enzyme used here was an expressed recombinant enzyme. • (a) Substrate specificity: In order to determine the substrate specificity, there may be used a hydrocarbon system including various ketone, aldehyde and ester groups, or an aromatic compound.\nThe reaction mixture (total: 2.0 ml) comprised an 80 mM potassium phosphate solution (pH 7.0 or 6.0), 0.1 mM NADPH or NADH and a carbonyl substrate or enzyme (50 µl) (10.1 µg or 3.7 µg of hDCR1).\nThe oxidation rate for NAD(P)H was measured at 340 nm.\nOne unit of enzyme activity was defined as that which catalyzed oxidation of 1 µmol of NAD(P)H in one minute at 25°C."}, "[13]": {"settings": "other: rate constants for the major substrates, mouse enzyme, pH 7.0, 25.0 °C"}, "[14]": {"settings": "other: assay at pH 7.0, 25.0 °C"}}}
{"protein": "B1", "values": [{"measurement": "Km", "setting": "[1]; [13]", "result": 130, "unit": "µM"}, {"measurement": "Vmax", "setting": "[1]; [13]", "result": 6.6, "unit": "unit/mg"}, {"measurement": "Vmax/Km", "setting": "[1]; [13]", "result": 51, "unit": "unit/mg/mM"}, {"measurement": "Km", "setting": "[2]; [13]", "result": 900, "unit": "µM"}, {"measurement": "Km", "setting": "[3]", "result": "4,400 µM"}, {"measurement": "Vmax", "setting": "[3]", "result": 0.78, "unit": "unit/mg"}, {"measurement": "Vmax/Km", "setting": "[3]", "result": 0.18, "unit": "unit/mg/mM"}, {"measurement": "Km", "setting": "[4]", "result": 200, "unit": "µM"}, {"measurement": "Vmax", "setting": "[4]", "result": 4.4, "unit": "unit/mg"}, {"measurement": "Vmax/Km", "setting": "[4]", "result": 22, "unit": "unit/mg/mM"}, {"measurement": "Km", "setting": "[5]", "result": "7,900 µM"}, {"measurement": "Vmax", "setting": "[5]", "result": 0.62, "unit": "unit/mg"}, {"measurement": "Vmax/Km", "setting": "[5]", "result": 0.08, "unit": "unit/mg/mM"}, {"measurement": "Km", "setting": "[6]", "result": 690, "unit": "µM"}, {"measurement": "Vmax", "setting": "[6]", "result": 8.7, "unit": "unit/mg"}, {"measurement": "Vmax/Km", "setting": "[6]", "result": 13, "unit": "unit/mg/mM"}, {"measurement": "Km", "setting": "[7]", "result": "1,700 µM"}, {"measurement": "Vmax", "setting": "[7]", "result": 2.7, "unit": "unit/mg"}, {"measurement": "Vmax/Km", "setting": "[7]", "result": 1.6, "unit": "unit/mg/mM"}, {"measurement": "Km", "setting": "[8]; [13]", "result": 230, "unit": "µM"}, {"measurement": "Vmax", "setting": "[8]; [13]", "result": 4.1, "unit": "unit/mg"}, {"measurement": "Vmax/Km", "setting": "[8]; [13]", "result": 18, "unit": "unit/mg/mM"}, {"measurement": "Km", "setting": "[9]", "result": 140, "unit": "µM"}, {"measurement": "Vmax", "setting": "[9]", "result": 6.7, "unit": "unit/mg"}, {"measurement": "Vmax/Km", "setting": "[9]", "result": 48, "unit": "unit/mg/mM"}, {"measurement": "Km", "setting": "[10]", "result": "6,500 µM"}, {"measurement": "Vmax", "setting": "[10]", "result": 0.51, "unit": "unit/mg"}, {"measurement": "Vmax/Km", "setting": "[10]", "result": 0.08, "unit": "unit/mg/mM"}, {"measurement": "Km", "setting": "[11]; [13]", "result": 280, "unit": "µM"}, {"measurement": "Vmax", "setting": "[11]; [13]", "result": 5.7, "unit": "unit/mg"}, {"measurement": "Vmax/Km", "setting": "[11]; [13]", "result": 20, "unit": "unit/mg/mM"}]}
{"protein": "B2", "values": [{"measurement": "Km", "setting": "[1]; [14]", "result": "(0.12) mM"}, {"measurement": "Km", "setting": "[2]; [14]", "result": "(0.25) mM"}, {"measurement": "Km", "setting": "[12]", "result": "(0.016) mM"}, {"measurement": "Km", "setting": "[8]; [14]", "result": "(0.24) mM"}, {"measurement": "Km", "setting": "[11]; [14]", "result": "(0.26) mM"}]}
